The source of these data is paper PMC7453904, “Intrahepatic heteropolymerization of M and Z alpha-1-antitrypsin” (JCI Insight, 2020).

For assay [1], the target named is Z A1AT subunit of MZ heterozygote liver polymers (human (endogenous in liver tissue)). The experiment in a line: negative-stain electron microscopy of liver polymers; polymers formed in vivo, extracted from inclusion bodies of explant liver and purified; imaged with and without Fab2H2, which marks M subunits; subunits counted.
Assay [2] concerns the target T1, plasma-purified monomeric native M alpha-1-antitrypsin (Homo sapiens (Human)., UniProt P01009).
T1 construct: Plasma glycoprotein; also called M A1AT; native M A1AT
The assay is described as follows: SPR; Biacore T100; mAb2H2 amine-coupled to a CM5 chip; A1AT analytes 0–2 μM in PBS with 0.05% v/v Tween-20 at 30 μL/min; maximal responses fit by a hyperbolic function. The settings on record: both partners purified.

T1 sequence (P01009 25-418): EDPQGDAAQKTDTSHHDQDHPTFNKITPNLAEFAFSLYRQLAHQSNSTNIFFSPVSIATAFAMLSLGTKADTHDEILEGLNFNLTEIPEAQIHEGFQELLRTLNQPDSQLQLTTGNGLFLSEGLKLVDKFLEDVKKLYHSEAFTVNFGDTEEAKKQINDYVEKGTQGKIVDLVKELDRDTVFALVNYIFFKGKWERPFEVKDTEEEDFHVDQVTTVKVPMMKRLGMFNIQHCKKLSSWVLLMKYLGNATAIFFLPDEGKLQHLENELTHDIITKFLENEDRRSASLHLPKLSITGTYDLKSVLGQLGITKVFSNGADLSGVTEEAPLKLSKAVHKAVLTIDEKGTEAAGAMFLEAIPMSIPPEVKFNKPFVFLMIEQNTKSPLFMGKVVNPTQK

In assay [1], “Z A1AT subunit of MZ heterozygote liver polymers (natural protein)” came in with a mean length in subunits of circular polymers without a detectable M component of 6.6 subunits and a mean length in subunits of linear polymers without a detectable M component of 6.5 subunits.

B1: monoclonal antibody mAb2H2 (antibody, V domains shown)
VH: EVQLEESGGGLVKPGGSLKLSCAASGFAFSIYDMSWVRQTPEKRLEWVAYISSGGGTTYYPDTVKGRFTISRDNAKNTLYLQMSSLKSEDTAIYYCARHAGVHYWGQGTTLTVSS
VL: DIVMTQSPSSMYASLGERVTITCKASQDINSYLSWFQQKPGKSPKNLIYRANRLVDGVPSRFSGSGSGQDYSLTISSLEYEDMGIYYCLQYDEFPWTFGGGTKLESK
notes: Whole mouse monoclonal antibody; Raised against heat-induced and denaturant-induced polymers of plasma A1AT; also called clone 2H2; source: hybridoma from splenocytes of immunized BALB/c mice; in culture medium (screen) and purified (HiTrap Protein G)
Consider B1, for which the equilibrium dissociation constant (Kd) in assay [2] was determined as 447 nM.
